One experiment deals with T1, 4H3073-AA.
T1 chain: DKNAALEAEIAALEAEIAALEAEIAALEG
Briefly: two-hybrid library CCmax.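 Further: natural log of median RNA to DNA barcode read ratio; higher means stronger binding.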 Conditions: mean of both orientations.

A further experiment deals with T2, 4H56-AA.
T2 chain: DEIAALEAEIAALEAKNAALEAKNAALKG
Description: two-hybrid library CCmax.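 Further: natural log of median RNA to DNA barcode read ratio; higher means stronger binding.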 Conditions: mean of both orientations.

In another experiment the target is T3, 4H2330-AA.
T3 chain: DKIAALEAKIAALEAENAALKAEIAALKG
Briefly: two-hybrid library CCmax.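 Further: natural log of median RNA to DNA barcode read ratio; higher means stronger binding.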 The settings on record: mean of both orientations.

For a further experiment, the target named is T4, 4H249-AA.
T4 chain: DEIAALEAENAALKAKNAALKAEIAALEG
Briefly: two-hybrid library CCmax.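 Further: natural log of median RNA to DNA barcode read ratio; higher means stronger binding.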 Conditions: mean of both orientations.

Another experiment has as its target T5, 4H2774-AA.
T5 chain: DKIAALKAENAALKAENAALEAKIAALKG
Description: two-hybrid library CCmax. The settings on record: mean of both orientations.

The next experiment has as its target 4H_GCN4. Briefly: two-hybrid library CCmax.
Another experiment addresses T6, 4H3015-AA.
T6 chain: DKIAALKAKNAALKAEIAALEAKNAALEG
Briefly: two-hybrid library CCmax. Conditions: mean of both orientations.

A further experiment addresses T7, 4H2124-AA.
T7 chain: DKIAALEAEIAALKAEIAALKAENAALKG
Description: two-hybrid library CCmax. Conditions: mean of both orientations.

A further experiment deals with T8, 4H347-AA.
T8 chain: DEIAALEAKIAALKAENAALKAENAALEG
Briefly: two-hybrid library CCmax. Conditions: mean of both orientations.

Another experiment has as its target T9, 4H2165-AA.
T9 chain: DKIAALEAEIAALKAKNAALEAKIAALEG
Description: two-hybrid library CCmax. The settings on record: mean of both orientations.

Another experiment addresses GCN2_T. Description: two-hybrid library CCmax.
The target of another experiment is T10, 4H2253-AA.
T10 chain: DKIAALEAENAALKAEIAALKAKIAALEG
Description: two-hybrid library CCmax. The settings on record: mean of both orientations.

The target in a further experiment is T11, 4H2732-AA.
T11 chain: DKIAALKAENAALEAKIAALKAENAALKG
Description: two-hybrid library CCmax. Conditions: mean of both orientations.

For another experiment, the target named is T12, 4H2343-AA.
T12 chain: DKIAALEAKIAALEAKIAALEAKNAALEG
Briefly: two-hybrid library CCmax. The settings on record: mean of both orientations.

The target in another experiment is T13, 4H406-AA.
T13 chain: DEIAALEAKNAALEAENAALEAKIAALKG
Briefly: two-hybrid library CCmax. The settings on record: mean of both orientations.

The target in another experiment is T14, 4H1930-AA.
T14 chain: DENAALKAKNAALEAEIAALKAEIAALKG
Briefly: two-hybrid library CCmax. Conditions: mean of both orientations.

In a further experiment the target is T15, 4H_BCR.
T15 chain: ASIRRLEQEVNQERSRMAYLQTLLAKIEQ
Description: two-hybrid library CCmax. Conditions: mean of both orientations.

The target in the next experiment is T16, 4H2931-AA.
T16 chain: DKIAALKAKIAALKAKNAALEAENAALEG
Briefly: two-hybrid library CCmax. Conditions: mean of both orientations.

The target in another experiment is T17, 4H452-AA.
T17 chain: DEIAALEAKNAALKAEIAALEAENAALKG
Briefly: two-hybrid library CCmax. Conditions: mean of both orientations.

The target in the next experiment is T18, 4H3001-AA.
T18 chain: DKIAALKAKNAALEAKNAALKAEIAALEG
Description: two-hybrid library CCmax. Conditions: mean of both orientations.

For another experiment, the target named is T19, 4H2592-AA.
T19 chain: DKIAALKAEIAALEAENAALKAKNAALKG
Description: two-hybrid library CCmax. The settings on record: mean of both orientations.

The next experiment has as its target T20, 4H1828-AA.
T20 chain: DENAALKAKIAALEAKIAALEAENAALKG
Description: two-hybrid library CCmax.

In another experiment the target is T21, 4H2466-AA.
T21 chain: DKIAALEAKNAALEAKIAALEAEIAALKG
Description: two-hybrid library CCmax. The settings on record: mean of both orientations.

A further experiment concerns the target T22, 4H3438-AA.
T22 chain: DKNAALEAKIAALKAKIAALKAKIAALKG
Briefly: two-hybrid library CCmax. The settings on record: mean of both orientations.

A further experiment deals with T23, 4H_APH.
T23 chain: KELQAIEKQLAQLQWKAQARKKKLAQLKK
Briefly: two-hybrid library CCmax.

A further experiment concerns the target T24, P9A-bP.
T24 chain: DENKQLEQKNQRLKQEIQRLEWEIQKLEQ
Description: two-hybrid library CCNG1.

For a further experiment, the target named is T25, P4A-bP.
T25 chain: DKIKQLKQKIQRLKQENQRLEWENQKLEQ
Description: two-hybrid library CCNG1.

The next experiment addresses T26, P3A-bP.
T26 chain: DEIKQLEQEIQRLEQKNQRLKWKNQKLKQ
Description: two-hybrid library CCNG1.

A further experiment has as its target T27, P8A-bP.
T27 chain: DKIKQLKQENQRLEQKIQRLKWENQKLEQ
Briefly: two-hybrid library CCNG1.

A further experiment has as its target T28, P6A-bP.
T28 chain: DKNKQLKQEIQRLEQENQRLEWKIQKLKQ
Description: two-hybrid library CCNG1.

For another experiment, the target named is T29, P5A-bP.
T29 chain: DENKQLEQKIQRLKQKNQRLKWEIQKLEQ
Briefly: two-hybrid library CCNG1.

The next experiment addresses T30, P7A-bP.
T30 chain: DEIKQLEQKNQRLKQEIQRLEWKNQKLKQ
Briefly: two-hybrid library CCNG1.

Chain of 4H_GCN4 (chain, as listed by the source): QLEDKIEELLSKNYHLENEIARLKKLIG

B1: 4H1828-AA (peptide)
chain: DENAALKAKIAALEAKIAALEAENAALKG
For B1, the interaction score with 4H3073-AA was -1.08; in the experiment with 4H56-AA it was -1.03; in the experiment with 4H2330-AA it was -1.45; in the experiment with 4H249-AA, -1.5; with 4H2774-AA, -1.37; with 4H_GCN4, -2.2. For the same molecule, the interaction score with 4H3015-AA is -1.83; with 4H2124-AA, -1.65; in the experiment with 4H347-AA it was -0.947; with 4H2165-AA, -1.37; in the experiment with GCN2_T it was -2.49; with 4H2253-AA, -1.32. Besides, the interaction score with 4H2732-AA is -1.51; in the experiment with 4H2343-AA it was -1.69; with 4H406-AA it was -1.44; with 4H1930-AA it was -1.5; with 4H_BCR it was -2.28; in the experiment with 4H2931-AA, -2.02. Further, the interaction score in the experiment with 4H452-AA was -1.35; with 4H3001-AA, -1.55; with 4H2592-AA, -0.581; with 4H1828-AA it was 1.34; with 4H2466-AA it was -1.4; with 4H3438-AA it was -1.01. In addition, the interaction score with 4H_APH is -1.13.

B2: P3A-bP (peptide)
chain: DEIKQLEQEIQRLEQKNQRLKWKNQKLKQ
Turning to B2, the interaction score with P9A-bP is -0.126; with P4A-bP, 0.89; with P3A-bP, -0.848; with P8A-bP it was -0.641; in the experiment with P6A-bP it was -0.316; in the experiment with P5A-bP, -0.806. This molecule also gave an interaction score in the experiment with P7A-bP of -0.807.

The values are drawn from PMC10397247.
